# Results as given in patent US7387779B2, “Anti-angiogenic proteins and fragments and methods of use thereof” (Beth Israel Deaconess Medical Center, priority 1998, dated 2008).
# B1: endostatin: tumor associated angiogenesis inhibitor used as comparator (protein, UniProt P39060 1572-1754, looked up)
# Endostatin: HSHRDFQPVLHLVALNSPLSGGMRGIRGADFQCFQQARAVGLAGTFRAFLSSRLQDLYSIVRRADRAAVPIVNLKDELLFPSWEALFSGSEGPLKPGARIFSFDGKDVLRHPTWPQKSVWHGSDPNGRRLTESYCETWRTEAPSATGQASSLLGGRLLGQSAASCHHAYIVLCIENSFMTASK
# modifications: Endostatin
# B2: Tum-1: residues 54 to 244 of Tumstatin, lacking the N-terminal 53 amino acids (SEQ ID NO:22) (protein)
# chain: QRAHGQDLGTLGSCLQRFTTMPFLFCNVNDVCNFASRNDYSYWLSTPALMPMNMAPITGRALEPYISRCTVCEGPAIAIAVHSQTTDIPPCPHGWISLWKGFSFIMFTSAGSEGTGQALASPGSCLEEFRASPFLECHGRGTCNYYSNSYSFWLASLNPERMFRKPIPSTVKAGELEKIISRCQVCMKKRH
# modifications: Tum-1 (Tumstatin N-53) (amino acids 54-244 of SEQ ID NO10)
# B3: Can-1: N-terminal 114 amino acids of full-length Canstatin (protein, listed as Homo sapiens)
# chain: VSIGYLLVKHSQTDQEPMCPVGMNKLWSGYSLLYFEGQEKAHNQDLGLAGSCLARFSTMPFLYCNPGDVCYYASRNDKSYWLSTTAPLPMMPVAEDEIKPYISRCSVCEAPAIA
# B4: Tumstatin: NC1 domain of the α3 chain of type IV collagen, residues 1-244 (SEQ ID NO:10) (protein, listed as Homo sapiens)
# chain: GLKGKRGDSGSPATWTTRGFVFTRHSQTTAIPSCPEGTVPLYSGFSFLFVQGNQRAHGQDLGTLGSCLQRFTTMPFLFCNVNDVCNFASRNDYSYWLSTPALMPMNMAPITGRALEPYISRCTVCEGPAIAIAVHSQTTDIPPCPHGWISLWKGFSFIMFTSAGSEGTGQALASPGSCLEEFRASPFLECHGRGTCNYYSNSYSFWLASLNPERMFRKPIPSTVKAGELEKIISRCQVCMKKRH
# B5: Tumstatin-44-131: residues 44 to 131 of full-length Tumstatin (SEQ ID NO:33) (protein)
# chain: FSFLFVQGNQRAHGQDLGTLGSCLQRFTTMPFLFCNVNDVCNFASRNDYSYWLSTPALMPMNMAPITGRALEPYISRCTVCEGPAIAI
# modifications: Tumstatin-45-132 (amino acids 45-132 of SEQ ID NO10)
# B6: Canstatin: NC1 domain of the α2 chain of Type IV collagen (SEQ ID NO:6) (protein, listed as Homo sapiens)
# chain: VSIGYLLVKHSQTDQEPMCPVGMNKLWSGYSLLYFEGQEKAHNQDLGLAGSCLARFSTMPFLYCNPGDVCYYASRNDKSYWLSTTAPLPMMPVAEDEIKPYISRCSVCEAPAIAIAVHSQDVSIPHCPAGWRSLWIGYSFLMHTAAGDEGGGQSLVSPGSCLEDFRATPFIECNGGRGTCHYYANKYSFWLTTIPEQSFQGSPSADTLKAGLIRTHISRCQVCMKNL
# System: new blood vessels in Matrigel plugs
# Assay: In vivo Matrigel plug assay
# Design: species or system C57/BL6 mice
# Conditions: for inhibition of neovascularization / average number of vessels per high power field: Tumstatin-N53 5 μg/ml, T1 and T3 peptide 10 μg/ml; for average number of vessels per high power field: control 8.81±0.35; for reduction in the number of blood vessels / number of blood vessels per plug: 14 days; for reduction of new blood vessels: 6 days, 5 μg/ml, relative to PBS control; for number of blood vessels per plug: 2 or 20 μg/ml insoluble protein, 50 ng/ml VEGF, vs PBS
# Description: The matrigel assay was also conducted in vivo in C57/BL6 mice. Matrigel was thawed overnight at 4° C. It was then mixed with 20 U/ml of heparin (Pierce Chemical Co., Rockford, Ill., USA), 150 ng/ml of bFGF (R&D Systems, Minneapolis, Minn., USA), and either 1 μg/ml of Arresten or 10 μg/ml of endostatin. The matrigel mixture was injected subcutaneously using a 21 g needle. Control groups received the same mixture, but with no angiogenic inhibitor. After 14 days, mice were sacrificed and the matrigel plugs removed. The matrigel plugs were fixed in 4% paraformaldehyde in PBS for 4 hours at room temperature, then switched to PBS for 24 hours. The plugs were embedded in paraffin, sectioned, and H&E stained. Sections were examined by light microscopy and the number of blood vessels from 10 high-power fields were counted and averaged.
# To evaluate the in vivo effect of Tumstatin on the formation of new capillaries, a Matrigel plug assay was performed (Passaniti, A. et al., 1992, Lab. Invest. 67:519-29). Five- to six-week-old male C57/BL6 mice (Jackson Laboratories, Bar Harbor, Me., USA) were obtained. Matrigel (Collaborative Biomedical Prods.) was thawed overnight at 4° C. Before injection into C57/BL6 mice, it was mixed with 20 U/ml of heparin (Pierce Chemical Co., Rockford, Ill., USA), 150 ng/ml of bFGF (R&D Sys., Minneapolis, Minn., USA), and […] of Tumstatin. Control groups received no angiogenic inhibitor. The Matrigel mixture was injected sub-cutaneously using a 21 gauge needle. After 14 days, mice were sacrificed and the Matrigel plugs were removed. Matrigel plugs were fixed in 4% para-formaldehyde (in PBS) for 4 hours at room temperature, then switched to PBS for 24 hours. The plugs were embedded in paraffin, sectioned, and H & E stained. Sections were examined by light microscopy and the number of blood vessels from 10 high power fields were counted and averaged. All sections were coded and observed by a pathologist who was unaware of the study protocols.
# Anti-angiogenic activity was measured by the in vivo Matrigel plug assay, in which 0.5 ml of Matrigel containing either 2 μg/ml or 20 μg/ml insoluble protein, 50 ng/ml VEGF, and 20 U/ml heparin was injected simultaneously into both flanks of C57/1BL6 mice. The plugs remained in the mice for 14 days, when the mice were sacrificed and the plugs resected and fixed. The plugs were embedded, sectioned and H&E stained. Samples were blinded and the blood vessels quantitated. No difference in the number of blood vessels was found between the two concentrations of protein, so all six counts were averaged and plotted.
# To evaluate the in vivo effect of Tumstatin-44-131 of the formation of new capillaries, a Matrigel plug assay was performed. After 6 days of treatment, the number of new blood formed was reduced 91% upon treatment with 5 μg/ml E. Coli-expressed Tumstatin-44-131, relative to the PBS-treated control. Tum-1, which lacks the N-terminal 53 amino acids of full-length Tumstatin, was also tested, and reduced neovascularization by 95%. The average (over 3-4 Matrigel plugs) number of vessels was 0.47.+−.0.16 for Tum-1-treated plugs, 0.80.+−.0.16 for Tumstatin-44-131-treated plugs, and 8.81.+−.0.35 for PBS-treated controls.
# To evaluate the in vivo effect of T3 on the formation of new capillaries, a matrigel plug assay was performed with Tumstatin-N53 (5 μg/ml), T1 and T3 peptide (10 μg/ml). The number of blood vessels from 4-7 high power fields were counted and averaged. The average number of vessels per high power field after treatment with Tumstatin-N53 was 0.47±0.16, 7.41±0.54 for T1 peptide, and 0.33±0.16 for T3 peptide. Control treatment produced 8.81±0.35 vessels per field, on average.
molecule,measurement,setting,value
LQRFTTMPFLFCNVNDVCNF [T3],inhibition of neovascularization,,96%
same,average number of vessels per high power field,,0.33±0.16
GLKGKRGDSGSPATWTTRGF [T1],inhibition of neovascularization,,no significant reduction
same,average number of vessels per high power field,,7.41±0.54
B1,reduction in the number of blood vessels,"bFGF, 1 μg/ml Arresten, 10 μg/ml endostatin",50%
B2,reduction of new blood vessels,,95%
same,inhibition of neovascularization,,95%
same,average number of vessels per high power field,,0.47±0.16
B3,number of blood vessels per plug,,significantly fewer blood vessels
B4,number of vessels per high power field,"1 mg/ml Tumstatin, control 7.50±2.17",2.25±1.32
same,reduction in the number of blood vessels,"bFGF and heparin, 1 mg/ml E. Coli-produced Tumstatin",67%
B5,reduction of new blood vessels,,91%
B6,number of blood vessels per plug,,significantly fewer blood vessels
